Test results reported in patent publication US20190262327A1, “COMBINATION OF A BACE INHIBITOR AND AN ANTIBODY OR ANTIGEN-BINDING FRAGMENT FOR THE TREATMENT OF A DISORDER ASSOCIATED WITH THE ACCUMULATION OF AMYLOID BETA” (ASTRAZENECA AB, priority 2016, published 2019).

Legend:
[1] = molecular target: T1, human Amyloid beta 1-42 peptide (Homo sapiens, UniProt P05067); experiment: Surface Plasmon Resonance kinetic profiling of purified scFv (ProteOn); assay type: binding; details: biotinylated human Amyloid beta 1-42 on streptavidin chip
T1 construct: biotinylated human Amyloid beta 1-42 peptide (rpeptide, USA; cat: A1117); purchased rPeptide, USA A1117; host or cells: synthetic peptide

[2] = molecular target: T2, Amyloid beta 1-42 peptide (Rattus norvegicus, UniProt P08592); experiment: Total Amyloid beta 1-42 peptide in rat brain homogenates (ELISA); assay type: in vivo; details: normal rats
T2 construct: Measurement of free Amyloid beta 1-42 peptide in rat CSF; from tissue; host or cells: CSF and brain homogenate of Sprague-Dawley rats
Protocol: (§1) Eight-week old male albino Harlan Sprague-Dawley rats (n=8-12) received a single dose of Abet0380-GL IgG1-TM antibody by intravenous injection with a dosing vehicle of 25 mM Histidine, 7% Sucrose, 0.02% p80 surfactant, pH 6.0 at 5 ml/kg. Dosing solutions were made just before dosing. Animals were anaesthetized at the time indicated and cerebrospinal fluid (CSF) was aspirated from the cistema magna. CSF samples were centrifuged for 10 minutes at approximately 3000× g at 4° C. within 20 minutes of sampling to remove cells or debris. Samples were then frozen on dry ice and stored at −70° C. for subsequent analysis.
Animals were sacrificed by decapitation, brain tissue was dissected and Amyloid beta peptides were extracted from brain tissue in diethylamine (DEA; Fluka. Sigma. UK; cat: 31729). Briefly, frozen brain tissue was homogenized in 0.2% DEA and 50 mM NaCl (Merck, USA: cat: 1.06404.1000). Brain homogenates were ultracentrifuged at 133,000×g, for 1 hour. Recovered supernatants were neutralized to pH 8.0 with 2 M Tris-HCl (TRIZMA®-hydrochloride; Sigma, UK; cat: 93363) and stored at −70° C. until analysis. Animal experimentations were performed in accordance with relevant guidelines and regulations provided by the Swedish Board of Agriculture. The ethical permission was provided by an ethical board specialized in animal experimentations: the Stockholm Södra Animal Research Ethical Board.
Measurement of total (free and Abet0380-GL bound) Amyloid beta 1-42 peptide in rat brain homogenates was performed using modifications of the mouse Amyloid beta (1-42) colorimetric ELISA kit (Invitrogen, UK: cat: KMB3441). […] To stop the reaction, 100 μl of Stop Solution was added to each well and the plate was read within 2 hours at an absorbance of 450 nm. […]
The ability of antibody Abet0144-GL to sequester amyloid beta 1-42 was investigated in a PK-PD study in normal rats. […] Free and total amyloid beta 1-42 levels were measured using assays described above.

amyloid beta 1-42 = molecular target: T3, amyloid beta 1-42 (Rattus norvegicus, UniProt P08592); experiment: Total amyloid beta 1-42 in rat CSF (PK-PD study in normal rats); assay type: in vivo
T3 construct: Measurement of free Amyloid beta 1-42 peptide in rat CSF; from tissue; host or cells: CSF and brain homogenate of Sprague-Dawley rats
Protocol: The ability of antibody Abet0144-GL to sequester amyloid beta 1-42 was investigated in a PK-PD study in normal rats. Rats were intravenously administered Abet0144-GL (10 or 40 mg/kg) or vehicle weekly for 2 weeks (on days 0 and 7), and sacrificed a week after the 2nd dose. CSF was sampled for free and total amyloid beta 1-42, and brain was sampled for total amyloid beta 1-42 measurement. Free and total amyloid beta 1-42 levels were measured using assays described above.

[3] = molecular target: T2, Amyloid beta 1-42 peptide; experiment: Free Amyloid beta 1-42 peptide in rat CSF (immunoprecipitation + ELISA); assay type: in vivo; details: normal rats, 10 mg/kg i.v. weekly for 2 weeks; not significant
Protocol: as §1
Measurement of free Amyloid beta 1-42 peptide in rat CSF was conducted using immunoprecipitation to remove Abet0380-GL bound Amyloid beta 1-42 peptide, followed by analysis by a commercial ELISA kit obtained from Invitrogen. Briefly, a solution of protein A beads (Dynabeads® Protein A; Invitrogen, UK; cat: 100-02D) was added to a 96 well non-skirted plate (polypropylene 0.2 ml; VWR International, UK; cat: 10732-4828) and washed twice with TBST (50 mM TBS; Sigma, UK; cat: T6664 plus 0.1% Tween20) using a magnet (DynaMag™ 96 side; Invitrogen, UK; cat: 123.31 D) to separate the beads from the solution. Thawed rat CSF samples (40 μl) were added to each well and incubated at […] with tilt rotation for 1 hour. The beads were then pelleted using the magnet and 30 μl of immunoprecipitated CSF samples were transferred to a 96 well plate from the ELISA kit (mouse Amyloid beta (1-42) colorimetric ELISA kit; Invitrogen, UK; cat: KMB3441) with 70 μl of the Standard Diluent Buffer already added (supplemented with protease inhibitor; Roche, UK; cat: 11836153001). Calibration standard samples were added to the plate in duplicate and the plate was incubated for 2 hours at room temperature with shaking. The plate was washed 4 times with 400 µl of wash buffer, 100 μl of the detection antibody solution was added to each well and the plate was incubated for 1 hour at room temperature with shaking. Again, the plate was washed 4 times with 400 μl of wash buffer, 100 μl of the secondary antibody working solution was added to each well and the plate was incubated for 30 minutes at room temperature with shaking. Finally, the plate was washed 4 times with 400 μl of wash buffer, 100 μl of stabilized Chromogen was added to each well and the plate was incubated for 30 minutes at room temperature in the dark. To stop the reaction, 100 μl of Stop Solution was added to each well and the plate was read within 2 hours at an absorbance of 450 nm. Single CSF samples were analyzed and data analysis was performed using Prism 4 (GraphPad, USA) with one-way ANOVA on log transformed data without adjustment for multiple comparisons.
To further investigate the effect of the Abet0380-GL IgG1-TM antibody in vivo, rats were administered weekly doses of 0.25, 0.5, 1, 5 or 10 mg/kg over 14 days. Animals were euthanized 168 hours after the second dose to measure levels of free Amyloid beta 1-42 peptide in CSF as well as total Amyloid beta 1-42 or 1-40 peptides in brain tissue.
The ability of antibody Abet0144-GL to sequester amyloid beta 1-42 was investigated in a PK-PD study in normal rats. Rats were intravenously administered Abet0144-GL (10 or 40 mg/kg) or vehicle weekly for 2 weeks (on days 0 and 7), and sacrificed a week after the 2nd dose. […] Free and total amyloid beta 1-42 levels were measured using assays described above.

[4] = 10 mg/kg i.v. weekly for 2 weeks
[5] = 40 mg/kg i.v. weekly for 2 weeks

T2 sequence (P08592 672-713 limits assumed): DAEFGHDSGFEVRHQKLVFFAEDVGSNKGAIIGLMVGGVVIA
T1 sequence (P05067 672-713): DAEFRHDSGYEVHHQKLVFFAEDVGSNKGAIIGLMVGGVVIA
T3 sequence (P08592 672-713 limits assumed): as the sequence (P08592 672-713 limits assumed) above

B1: Abet0144-GL: parent anti-Aβ antibody clone, germlined; VH domain SEQ ID NO: 20 and VL domain SEQ ID NO: 29 (antibody, listed as Homo sapiens, V domains shown)
VH: EVQLLESGGGLVQPGGSLRLSCAASGFTFSVYTMWWVRQAPGKGLEWVSVIGSSGGTTVYADSVKGRFTISRDNSKNTLYLQMNSLRAEDTAVYYCAREWMDHSRPYYYYGMDVWGQGTLVTVSS
VL: SYELTQPPSVSVSPGQTASITCSGHNLEDKFASWYQQKPGQSPVLVIYRDDKRPSGIPERFSASNSGHTATLTISGTQAMDEADYYCQAQDSTTRVFGGGTKLTVL
modifications: /note=“Abet0144-GL”
For B1, the “ka” value [1] was 116000 M⁻¹ s⁻¹, the “kd” value [1] was 0.0066 s⁻¹ and the “increase of total amyloid beta 1-42 in brain tissue” value [2, 4] was 16%. For the same molecule, the “increase of total amyloid beta 1-42 in brain tissue” value [2, 5] was 50%, the “increase of total amyloid beta 1-42 in CSF” value (amyloid beta 1-42; [4]) was 38% and the “increase of total amyloid beta 1-42 in CSF” value (amyloid beta 1-42; [5]) was 139%. For the same molecule, the “increase of free amyloid beta 1-42 in CSF compared with vehicle” value [3] was 5%.
